Reference: patent publication US20250353906A1 (FLAGSHIP PIONEERING INNOVATIONS VII, published 2025)

T1: DSG1 stably expressed on HEK-BLUE IL-10 cells (HEKBLUE IL-10/DSG1) (human, UniProt Q02413 50-1049)
T1 sequence (looked up): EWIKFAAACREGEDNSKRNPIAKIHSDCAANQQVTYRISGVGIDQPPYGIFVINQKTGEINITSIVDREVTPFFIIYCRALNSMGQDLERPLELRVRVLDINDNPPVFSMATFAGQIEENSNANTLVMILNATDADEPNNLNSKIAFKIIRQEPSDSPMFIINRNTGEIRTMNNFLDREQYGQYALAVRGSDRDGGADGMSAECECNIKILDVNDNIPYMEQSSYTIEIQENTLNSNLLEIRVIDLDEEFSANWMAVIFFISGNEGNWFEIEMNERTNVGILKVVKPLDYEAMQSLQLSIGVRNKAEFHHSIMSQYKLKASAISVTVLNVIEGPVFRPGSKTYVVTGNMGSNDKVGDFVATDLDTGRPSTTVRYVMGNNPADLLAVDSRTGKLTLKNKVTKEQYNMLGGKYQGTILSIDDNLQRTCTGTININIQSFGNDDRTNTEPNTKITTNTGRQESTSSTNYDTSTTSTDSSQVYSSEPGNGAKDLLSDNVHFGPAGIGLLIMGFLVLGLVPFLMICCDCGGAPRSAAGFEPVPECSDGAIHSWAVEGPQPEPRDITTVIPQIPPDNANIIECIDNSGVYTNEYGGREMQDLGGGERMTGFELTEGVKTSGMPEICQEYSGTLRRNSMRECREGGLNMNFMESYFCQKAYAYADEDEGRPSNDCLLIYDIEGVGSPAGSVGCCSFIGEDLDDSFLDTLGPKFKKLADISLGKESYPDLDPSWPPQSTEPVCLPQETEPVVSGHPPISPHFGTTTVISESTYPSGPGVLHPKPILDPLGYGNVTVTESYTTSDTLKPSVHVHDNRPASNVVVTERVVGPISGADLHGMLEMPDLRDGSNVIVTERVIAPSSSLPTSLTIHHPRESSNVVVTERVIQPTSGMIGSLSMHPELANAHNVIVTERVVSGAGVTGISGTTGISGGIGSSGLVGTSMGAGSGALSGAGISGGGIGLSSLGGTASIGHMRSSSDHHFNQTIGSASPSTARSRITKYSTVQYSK

T2: recombinant His-tagged human IL-10Ra (Creative Biomart) (human, UniProt Q13651 22-235)
T2 construct: His tag; also called IL-10 receptor alpha
T2 sequence (looked up): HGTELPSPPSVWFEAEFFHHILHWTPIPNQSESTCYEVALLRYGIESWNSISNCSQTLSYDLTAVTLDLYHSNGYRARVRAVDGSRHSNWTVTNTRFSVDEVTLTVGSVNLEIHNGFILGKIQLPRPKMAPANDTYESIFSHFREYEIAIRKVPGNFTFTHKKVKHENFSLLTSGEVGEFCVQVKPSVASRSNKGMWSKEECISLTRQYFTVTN


Key:
[1] = biological target: T1, DSG1 stably expressed on HEK-BLUE IL-10 …; assay: cell-based or functional assay
[2] = biological target: T3, recombinant His-tagged murine RAGE protein (ab276858 from Abcam) (mouse, UniProt Q62151 23-340, limits assumed); assay: BLI, ANDbody on anti-human IgG Fc biosensors, murine RAGE at 150 nM then murine Notch2 NRR at 150 nM
T3 construct: His tag; also called murine RAGE antigen
Procedure: To test simultaneous dual antigen binding of the Notch2/RAGE ANDbodies by BLI, PRO051, PRO052 and PRO053, along with monovalent parental antibody controls were immobilized on anti-human IgG Fc biosensors and dipped into the recombinant His-tagged murine RAGE protein at 150 nM, followed by a second association step into wells containing recombinant murine Notch2 NRR at 150 nM to measure dual antigen binding. The dissociation rate was then measured by dipping the biosensors into buffer.

[3] = biological target: T2, recombinant His-tagged human IL-10Ra …; assay: ELISA on coated His-tagged human IL-10Ra, serial dilution from 30 µg/mL
Procedure: To test the binding of the IL-10/anti-DSG1 ANDbodies to IL-10 receptor alpha (IL-10Ra) by ELISA, recombinant His-tagged human IL-10Ra (Creative Biomart) was coated on NUNC-IMMUNO™ MAXISORP™ ELISA plates at 1 μg/mL concentration overnight. The next day, coated antigen was removed and the wells were blocked with 1% IgG-free BSA followed by incubation with 11 three-fold serially diluted anti-IL-10/anti-DSG1 ANDbodies (as provided above) with a starting concentration of 30 μg/mL. Bound antibody was detected with peroxidase-conjugated anti-human IgG antibodies with TMB and acid stop reagents.

T3 sequence (Q62151 23-340 limits assumed): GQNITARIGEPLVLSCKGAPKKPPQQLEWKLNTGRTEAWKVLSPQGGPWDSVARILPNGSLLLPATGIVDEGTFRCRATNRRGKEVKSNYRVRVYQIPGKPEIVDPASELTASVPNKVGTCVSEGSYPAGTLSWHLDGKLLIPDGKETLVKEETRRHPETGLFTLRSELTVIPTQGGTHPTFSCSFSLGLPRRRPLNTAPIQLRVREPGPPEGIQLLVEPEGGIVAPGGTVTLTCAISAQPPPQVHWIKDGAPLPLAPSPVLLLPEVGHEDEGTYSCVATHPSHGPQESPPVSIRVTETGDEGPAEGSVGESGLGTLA

Row | binding result [2] | Binder | further results
1 |  | PRO058 (other) heavy: EVQLVESGGGLVQPGRSLRLSCAASGFTFDDYAMHWVRQAPGKGLEWVSGISWNSGSIDYADSVKGRFTISRDNAKNSLYLQMNSLRVEDTALYYCAKDGSRVFGVGGGFDFWGQGTMVTVSSASTKGPSVFPLAPSSKSTSGGTAALGCLVKDYFPEPVTVSWNSGALTSGVHTFPAVLQSSGLYSLSSVVTVPSSSLGTQTYICNVNHKPSNTKVDKKVEPKSCDKTHTCPPCPAPEAAGGPSVFLFPPKPKDTLMISRTPEVTCVVVDVSHEDPEVKFNWYVDGVEVHNAKTKPREEQYNSTYRVVSVLTVLHQDWLNGKEYKCKVSNKALGAPIEKTISKAKGQPREPQVYTLPPSRDELTKNQVKLTCLVKGFYPSDIAVEWESNGQPENNYKTTPPVLDSDGSFFLYSSLTVDKSRWQQGNVFSCSVMHEALHNHYTQKSLSLSPG light: not shown SPGQGTQSENSCTHFPGNLPNMLRDLRDAFSRVKTFFQMKDQLDNLLLKESLLEDFKGYLGCQALSEMIQFYLEEVMPQAENQDPDIKAHVNSLGENLKTLRLRLRRCHRFLPCENGGGSGGKSKAVEQVKNAFNKLQEKGIYKAMSEFDIFINYIEAYMTMKIRNGGGGSGGGGSDKTHTCPPCPAPEAAGGPSVFLFPPKPKDTLMISRTPEVTCVVVDVSHEDPEVKFNWYVDGVEVHNAKTKPREEQYNSTYRVVSVLTVLHQDWLNGKEYKCKVSNKALGAPIEKTISKAKGQPREPQVYTLPPSRDELTKNQVSLTCLVSGFYPSDIAVEWESNGQPENNYKTTPPVLDSDGSFKLYSKLTVDKSRWQQGNVFSCSVMHEALHNRFTQKSLSLSPG | increase in potency of IL-10 signaling (SEAP, HEK-BLUE IL-10 cells) when DSG1 was expressed on the target cells [1]: ~15 fold
2 | binds | PRO052 (bispecific antibody, Made by controlled Fab arm exchange from PRO035 (K409R) and PRO002 (F405L); also called Notch2/RAGE ANDbody PRO052; copies: 1 + 1 + 1 + 1) heavy 1: not shown light 1: DIQMTQSPSSLSASVGDRVTITCRASQSNRRFLAWYQQKPGKAPKLLIYGASSRASGVPSRFSGSGSGTDFTLTISSLQPEDFATYYCQQYYISPLTFGQGTKVEIKRTVAAPSVFIFPPSDEQLKSGTASVVCLLNNFYPREAKVQWKVDNALQSGNSQESVTEQDSKDSTYSLSSTLTLSKADYEKHKVYACEVTHQGLSSPVTKSFNRGEC heavy 2: not shown light 2: DIQMTQSPSSLSASVGDRVTITCRASQDVGIYVNWFQQKPGKAPRRLIYRATNLADGVPSRFSGSRSGTDFTLTISSLQPEDFATYYCLEFDEHPLTFGGGTKVEIKRTVAAPSVFIFPPSDEQLKSGTASVVCLLNNFYPREAKVQWKVDNALQSGNSQESVTEQDSKDSTYSLSSTLTLSKADYEKHKVYACEVTHQGLSSPVTKSFNRGEC | 
3 | binds | PRO051 (bispecific antibody, Made by controlled Fab arm exchange from PRO034 (K409R) and PRO002 (F405L); Signal peptides left out as for the parents; also called Notch2/RAGE ANDbody PRO051; RAGE-targeting ANDbody; copies: 1 + 1 + 1 + 1) heavy 1: not shown light 1: not shown heavy 2: not shown light 2: DIQMTQSPSSLSASVGDRVTITCRASQDVGIYVNWFQQKPGKAPRRLIYRATNLADGVPSRFSGSRSGTDFTLTISSLQPEDFATYYCLEFDEHPLTFGGGTKVEIKRTVAAPSVFIFPPSDEQLKSGTASVVCLLNNFYPREAKVQWKVDNALQSGNSQESVTEQDSKDSTYSLSSTLTLSKADYEKHKVYACEVTHQGLSSPVTKSFNRGEC | 
4 | binds | PRO053 (bispecific antibody, Made by controlled Fab arm exchange from PRO036 (K409R) and PRO002 (F405L); also called Notch2/RAGE ANDbody PRO053; copies: 1 + 1 + 1 + 1) heavy 1: not shown light 1: DIQMTQSPSSLSASVGDRVTITCRASQSVRSFLAWYQQKPGKAPKLLIYRASIRASGVPSRFSGSGSGTDFTLTISSLQPEDFATYYCQQYYISPWTFGQGTKVEIKRTVAAPSVFIFPPSDEQLKSGTASVVCLLNNFYPREAKVQWKVDNALQSGNSQESVTEQDSKDSTYSLSSTLTLSKADYEKHKVYACEVTHQGLSSPVTKSFNRGEC heavy 2: not shown light 2: DIQMTQSPSSLSASVGDRVTITCRASQDVGIYVNWFQQKPGKAPRRLIYRATNLADGVPSRFSGSRSGTDFTLTISSLQPEDFATYYCLEFDEHPLTFGGGTKVEIKRTVAAPSVFIFPPSDEQLKSGTASVVCLLNNFYPREAKVQWKVDNALQSGNSQESVTEQDSKDSTYSLSSTLTLSKADYEKHKVYACEVTHQGLSSPVTKSFNRGEC | 
5 |  | IL-10 Fc (Creative Biomart IL10-326H) (Fc fusion, human, UniProt P22301 19-178, looked up, Bought reagent; also called positive control IL-10 Fc; hIL-10 Fc fusion; not shown: human Fc domain) SPGQGTQSENSCTHFPGNLPNMLRDLRDAFSRVKTFFQMKDQLDNLLLKESLLEDFKGYLGCQALSEMIQFYLEEVMPQAENQDPDIKAHVNSLGENLKTLRLRLRRCHRFLPCENKSKAVEQVKNAFNKLQEKGIYKAMSEFDIFINYIEAYMTMKIRN | binding result [3]: binds
